This note sets out measurements from patent publication US12516130B2, “Single-domain antibody for targeting prostate specific membrane antigen (PSMA)” (NATIONAL INSTITUTE FOR BIOTECHNOLOGY IN THE NEGEV LTD., priority 2019, dated 2026).

Residue numbers refer to the chain shown, from its start.

Data set [1] concerns PC3-PIP cells. Kind of data set: Mitochondrial potential assay (TMRE). The class given is cell-based. The settings on record: 24 h, 1.5 μg/ml DOX or equivalent molar amount.
Protocol: PC3-PIP cells (2×10^4) were seeded on 96-well plates. […] After 24 h, tetramethylrhodamine ethyl ester (TMRE; Abcam, UK) was added according to the protocol provided by the manufacturer. Fluorescence intensity was measured at an excitation wavelength of 549 nm and an emission wavelength of 575 nm.
Data set [2] has as its target T1, PSMA (Homo sapiens, UniProt Q04609).
T1 construct: purified extracellular domain of PSMA [residues 44-750; purchased from Caltech Protein Expression Center, CA]; purchased Caltech Protein Expression Center, CA
Kind of data set: Surface plasmon resonance binding assay. The settings on record: for Koff / Kon: SPR, immobilized NB, 1:1 Langmuir model, 25° C., means ± SD; for binding constant (Ka) to PSMA: stated per SEQ ID NO in the description. The procedure:
The affinity of each NB to PSMA was determined by using surface plasmon resonance (SPR) spectroscopy on a ProteOn XPR36 chip (Bio-Rad, CA). The chip was activated by using sulfo-NHS (0.1 M N-hydroxysuccinimide) and EDC [0.4 M 1-ethyl-3-(3-dimethylaminopropyl)-carbodiimide]. Each NB (0.2 μg) was immobilized in a 10 mM sodium acetate buffer, pH 5.0, at a flow rate of 30 μl/min. Bovine serum albumin (BSA) (3 μg) was immobilized on the chip as a negative control. Unbound esters were deactivated with 1 M ethanolamine HCl at pH 8.5. The soluble PSMA was then applied over the chip at concentrations of 2.94, 5.88, 11.75, 23.50, or 47.00 nM (for NBs 8, 13, and 37) or of 25, 50, 100, 1,600, or 3,200 pM (for NB7), at a flow rate of 25 μl/min. During this time, the association between the NBs and PSMA was measured. The dissociation was measured while flowing 50 μl/min PBST (namely, a phosphate-buffered saline with 0.005% Tween). For each protein complex, a binding sensogram was generated by subtracting the values of the PSMA response to BSA from those of the PSMA response to the NBs. The dissociation constant (KD) was determined from the Langmuir 1:1 kinetic model. The temperature throughout the binding measurements was set at 25° C.
In general terms: In SPR one partner is held on a chip, and binding of the other changes the refractive index at the surface.

For data set [3], the target named is T1, PSMA. Description: Small-angle X-ray scattering of PSMA-NB complexes. The settings on record: for Dmax / Rg: PSMA + NB; for shift of Rg of PSMA-NB complex from the original Rg of PSMA (43 Å) / change of Dmax on binding of PSMA to NB: SAXS; for shift of Rg of PSMA-NB complex from the original Rg of PSMA (43 Å): PSMA 0.5 mg/ml; for change of Dmax on binding of PSMA to NB: PSMA alone 115 Å. On the procedure: The small-angle X-ray scattering (SAXS) of monomeric PSMA was measured in PBS at a final concentration of 0.5-3 mg/ml. For PSMA-NB complex samples, the concentration of PSMA was 0.5 mg/ml and the concentrations of the NBs were 0.1-0.5 mg/ml. Measurements were performed in beamline BM29 at the ESRF. The X-ray wavelength was 1.5 Å and the temperature was 4° C. The detector was Pilatus 1 M and the sample-to-detector distance was set at 2.86 m, with a scattering vector (q) range of 0.0025-0.5 Å^−1. At a scattering angle of 2θ, the magnitude of the scattering vector (q) is defined as: […]
The experimental SAXS data for all samples were linear in the low q, Guinier region. The radii of gyration (Rg) were derived from data in the qRg<1 region by using the Guinier approximation:
The inventors analyzed the small-angle region (0.012<q<0.08 Å^−1) of the scattering profiles using the Guinier approximation embedded in the GNOM method.
The scattering curve reflects structural characteristics in reciprocal space. Scattering profiles were translated into real space by Fourier transformation, resulting in the pairwise-distance distribution function P(r). This function reflects the distances between pairs of scattering points within the macromolecule, allowing the determination of the maximum dimension of the particle (Dmax). To obtain a reliable quantification of Dmax, the inventors incorporated GNOM with in-house scripts. The Rg of monomeric PSMA extracted from SAXS data was compared to the calculated Rg from the crystal structure of monomeric PSMA (PDB 3D7D) using CRYSOL. The overall three-dimensional ab initio models of PSMA and PSMA-NB complexes were restored from the experimental scattering data by using Dammin. Shape reconstruction was performed to represent the molecular shape as a closely packed sphere assembly within a search volume defined by Dmax, chosen with a χ^2<1.3 for all models. For all samples, 20 low-resolution models were averaged using the program DAMAVER to yield an averaged model representing the general structural features of each reconstruction.

Data set [4] deals with PC3-PIP (PSMA+) and PC3-flu (PSMA−) xenografts. Kind of data set: In vivo optical (NIR) imaging of labeled NBs. Set-up: species or system athymic nude mice. The settings on record: for duration until the fluorescent signal was no longer detected (late time point): whole-body NIR imaging, 1.5 nmole AlexaFluor680-labeled NB i.v. The procedure: Tumor xenografts were generated in 6-week old male athymic nude mice by using PC3-PIP and PC3-flu cells. Each mouse was simultaneously injected subcutaneously with 2×10^6 cells of each line, diluted 1:1 with Matrigel (Corning, USA); PC3-PIP cells were injected above the right upper flank, while PC3-flu cells were injected above the left one. Nine days after the inoculation, as the tumors reached a size of ˜200 mm^3, these mice were injected intravenously with 1.5 nmole of either NB7, NB8, NB13, or NB37 (four mice per group) labeled with NHS-ester AlexaFluor680 (Invitrogen). In addition to these 16 mice, four tumor-bearing mice were not injected with any NB, while four other mice were injected with the labeled NBs (a different NB per mouse) but were not implanted with a xenograft. The mice were anesthetized with isoflurane at different time points (see below) and the distribution of the fluorescently labeled protein was measured in near infra-red (NIR) optical imaging using the IVIS Lumina system (PerkinElmer, USA). Exposure time was set at 1 s. The fluorescence signal was measured at the time of injection, and 0.5, 1, 2, 3, 6, 10, 18, 24, 28, 32, 36, 48 and 56 h after injection. Images of the mice were acquired 3 and 6 h after injection, and again when a signal was no longer detected (24-56 h after injection). At each time point, one mouse from each group of tumor-bearing mice that had been injected with a NB was euthanized for an ex vivo quantification of the fluorescent signal in its organs, using the Living Image software.

Data set [5] relates to PC3-PIP cells. Description: Time-dependent quantification of NB internalization. Format: cell-based. The settings on record: 100 nM, imaged every 40 min for 16 h. The procedure: NB7, NB8, NB13, and NB37, each labeled with Dylight488, were individually incubated for 1 h (at 100 nM) in a 96-well plate. On each well, 1.5×10^4 PC3-PIP cells were seeded and grown overnight, and then the wells were imaged every 40 min for a total of 16 h, using the Operetta CLS high-content analysis system (Perkin Elmer). Each well was imaged as 24 fields, which were later combined to create an image of the entire well. Using the Operetta analysis software, the cells were qualitatively classified into two groups according to the distribution of NBs: (i) mostly on the cell membrane, and (ii) mostly inside the cytoplasm. The number of cells in each group was quantified at each time point and the ratio between the numbers of cells in each group was calculated.

Data set [6] relates to PC3-PIP (PSMA+) cells. Kind of data set: FACS cell binding assay, PC3-PIP cells. Format: cell-based. The settings on record: effect of K43PrK mutation.
Protocol: Once the cells reached 70% confluence, 10^5 cells were added to each well of 96-well U-shaped bottom plates (Greiner Bio-One, Austria), centrifuged at 150 g for 5 min, and washed with PBSA (namely, PBS+1 g/1 BSA). NBs were added to the cells in concentrations of 0.1, 0.5, 2, 5, 10, 20, 50, 100, 500, or 1000 nM. The cells were incubated with the NBs for 2 h, followed by three PBSA washing steps. An anti-His antibody conjugated to fluorescein isothiocyanate (FITC) (Invitrogen) was then added at a dilution of 1:100, incubated with the cells for 1 h, and washed three times with PBSA. The cells were kept on ice throughout the experiment. The fluorescence of each sample was measured using an Accuri C6 flow cytometry analyzer (BD Biosciences, CA). Each experimental condition was repeated three times. To generate a titration curve, the value for each sample was determined using the equation:
[formula] where Fsample is the mean fluorescence value, Flow is the fluorescence at the lowest concentration for PC3-PIP cells, and Fhigh is the fluorescence at the highest concentration for PC3-PIP cells. A binding curve was generated using GraphPad Prism 5.0.
The subject of data set [7] is PC3-PIP cells. Kind of data set: Cell viability assay (propidium iodide, FACS). The class given is cell-based. The note with it: 24 h, 1.5 μg/ml DOX or equivalent molar amount.
Protocol: PC3-PIP cells were grown and treated as described in the cell quantification assay section, above. The cells were harvested, incubated with 0.5 μg propidium iodide (PI; Biolegend), and their fluorescence intensity was measured in a BD C6 flow cytometer.

T1 sequence (Q04609 44-750): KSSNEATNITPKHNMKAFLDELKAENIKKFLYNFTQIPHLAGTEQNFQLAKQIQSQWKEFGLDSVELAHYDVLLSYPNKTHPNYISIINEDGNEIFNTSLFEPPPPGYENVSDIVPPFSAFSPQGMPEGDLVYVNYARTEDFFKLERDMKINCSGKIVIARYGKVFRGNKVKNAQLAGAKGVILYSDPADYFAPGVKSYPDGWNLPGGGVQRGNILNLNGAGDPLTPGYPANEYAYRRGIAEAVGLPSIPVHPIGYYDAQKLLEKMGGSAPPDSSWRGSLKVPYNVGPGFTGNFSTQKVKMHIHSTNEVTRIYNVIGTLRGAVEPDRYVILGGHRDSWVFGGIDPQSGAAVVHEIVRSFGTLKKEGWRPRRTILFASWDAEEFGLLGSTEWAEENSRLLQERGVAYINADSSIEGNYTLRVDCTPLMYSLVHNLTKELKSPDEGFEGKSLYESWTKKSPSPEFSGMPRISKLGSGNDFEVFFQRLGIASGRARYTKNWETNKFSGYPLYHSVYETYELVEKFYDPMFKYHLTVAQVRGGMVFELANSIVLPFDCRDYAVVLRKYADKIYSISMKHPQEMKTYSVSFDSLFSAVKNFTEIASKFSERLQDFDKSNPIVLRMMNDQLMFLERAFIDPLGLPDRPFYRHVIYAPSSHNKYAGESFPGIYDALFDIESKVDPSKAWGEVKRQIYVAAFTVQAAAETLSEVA

For the molecule “Carbonyl cyanide 4-(trifluorornethoxy) phenythydrazone [FCCP]”, the “mitochondrial membrane potential (TMRE signal)” value in data set [1] was “significantly reduced the mitochondrial membrane potential”.

B1: NB8: anti-PSMA camel nanobody (VHH, ~16 kDa) selected by phage display; PDB 6XXO (protein)
VHH: QVQLQESGGGSVQAGGSLRLSCARSGWPYSTYSMNWFRQAPGKEREAVAGISSTMSGIIFAESKAGQFTISQDNAKNTVYLQMNNLKPEDTAIYYCAARRDYSLSSSSDDFDYWGQGTQVTVSSAAAYPYDVPDYGS
Take B1: in data set [2], the Koff came to 0.00012 ± 5.3e-07 s⁻¹, the Kon came out at 20000 ± 42 M⁻¹ s⁻¹ and the “binding constant (Ka) to PSMA” value is recorded as “about 2×10^4 M^−1 s^−1”. Also, in data set [3] (method GNOM), the Dmax is on record as 100 Å and the Rg is listed as 39.4 Å. Besides, the Rg in data set [3] (method Guinier) is given as 40.5 Å. Also, in data set [3], the “shift of Rg of PSMA-NB complex from the original Rg of PSMA (43 Å)” value (from here on “shift of Rg of PSMA-NB complex”) is listed as “lower Rg” and the “change of Dmax on binding of PSMA to NB” value is recorded as “decreased it”. Moreover, in data set [4] (ex vivo, after 3 h), the “signal intensity in the PC3-PIP tumor” value was 171,000 counts/cm^2/s, the “signal intensity in the PC3-flu tumor” value is given as 21,300 counts/cm^2/s and the “signal intensity in the kidneys” value is reported as 94,700 counts/cm^2/s. In addition, in data set [4], the “duration until the fluorescent signal was no longer detected (late time point)” value is reported as 32 h.

B2: NB37: anti-PSMA camel nanobody (VHH, ~16 kDa) selected by phage display; PDB 6XXP (protein)
VHH: B1 VHH with Q13E
Take B2: in data set [2], the Koff stood at 7.5e-05 ± 6.6e-07 s⁻¹, the Kon was found to be 22000 ± 53 M⁻¹ s⁻¹ and the “binding constant (Ka) to PSMA” value is recorded as “about 2.2×10^4 M^−1 s^−1”. Besides, in data set [3] (method GNOM), the Dmax is reported as 110 Å and the Rg is listed as 38.6 Å. For the same molecule, the Rg in data set [3] (method Guinier) was 40.4 Å. Moreover, in data set [3], the “shift of Rg of PSMA-NB complex” value is reported as “lower Rg” and the “change of Dmax on binding of PSMA to NB” value is listed as “decreased it”. In addition, in data set [4], the “duration until the fluorescent signal was no longer detected (late time point)” value turned out to be 24 h.

B3: NB13: anti-PSMA camel nanobody (VHH, ~16 kDa) selected by phage display (protein)
VHH: QVQLQESGGGSVQTGGSLRLSCAASGYTASFSWIGYFRQAPGKEREGVAVINVGVGSTYYADSVKGRFTISRDNTENTISLEMNSLKPEDTGLYYCAGSLRWSRPPNPISEDAYNYWGQGTQVTVSSAAAYPYDVPDYGS
Turning to B3, in data set [2], the Koff was 2.2e-05 ± 9.9e-07 s⁻¹, the Kon was found to be 36000 ± 89 M⁻¹ s⁻¹ and the “binding constant (Ka) to PSMA” value is recorded as “about 3.6×10^4 M^−1 s^−1”. Moreover, in data set [3] (method GNOM), the Dmax is on record as 120 Å and the Rg came out at 40.5 Å. The Rg in data set [3] (method Guinier) is 43.8 Å. Further, in data set [3], the “shift of Rg of PSMA-NB complex” value is given as “lower Rg” and the “change of Dmax on binding of PSMA to NB” value is listed as “increased Dmax”. For the same molecule, the “duration until the fluorescent signal was no longer detected (late time point)” value in data set [4] is 32 h. Besides, the “internalization into PSMA-expressing cells (cytoplasm/membrane ratio over time)” value in data set [5] is “much faster”.

B4: NB7: anti-PSMA camel nanobody (VHH, ~16 kDa) selected by phage display; PDB 6XXN (protein)
VHH: QVQLQESGGGSVQAGGSLRLSCTAPGYTDSNYYMSWFRQAPGKEREWVAGVNTGRGSTSYADSVKGRFTISQDNAKNTMFLQMNSLKPEDTAIYYCAVAACHFCDSLPKTQDEYILWGQGTQVTVSSAAAYPYDVPDYGS
Consider B4, for which, in data set [2], the Koff is 3.9e-05 ± 2.8e-07 s⁻¹, the Kon is 710000 ± 450 M⁻¹ s⁻¹ and the “binding constant (Ka) to PSMA” value was “about 7.1×10^5 M^−1 s^−1”. Further, in data set [3] (method GNOM), the Dmax is 120 Å and the Rg turned out to be 42.4 Å. Further, the Rg in data set [3] (method Guinier) is 48.2 Å. Moreover, in data set [3], the “shift of Rg of PSMA-NB complex” value is given as “higher Rg” and the “change of Dmax on binding of PSMA to NB” value is “increased Dmax”. Moreover, the “duration until the fluorescent signal was no longer detected (late time point)” value in data set [4] is given as more than 56 h. The “internalization into PSMA-expressing cells (cytoplasm/membrane ratio over time)” value in data set [5] is “much faster”.

B5: NB7 K43PrK: NB7 with lysine K43 changed to the non-natural amino acid PrK (protein)
VHH: B4 VHH with K43X
modifications: non-natural residues; left off: small tags and cut ends
notes: NB7 with lysine K43 changed to the non-natural amino acid PrK
As for B5, the “binding to PC3-PIP cells versus NB7, FACS” value in data set [6] was “no significant change in binding”.

B6: NB7cys: NB7 with an added cysteine in the C-terminus (protein)
VHH (part 1 of 2): B4 VHH
VHH (part 2 of 2): C
modifications: left off: small tags and cut ends
notes: NB7 with an added cysteine in the C-terminus
As to B6, the “PI signal (late apoptosis and necrosis)” value in data set [7] is recorded as “did not change the PI signal”.
